Patent US20150374698A1

Biological target: AVP V1A receptor (mouse) (UniProt Q62463)
Assay: cell-based or functional assay

Sequence of AVP V1A receptor (mouse) (Q62463 whole entry): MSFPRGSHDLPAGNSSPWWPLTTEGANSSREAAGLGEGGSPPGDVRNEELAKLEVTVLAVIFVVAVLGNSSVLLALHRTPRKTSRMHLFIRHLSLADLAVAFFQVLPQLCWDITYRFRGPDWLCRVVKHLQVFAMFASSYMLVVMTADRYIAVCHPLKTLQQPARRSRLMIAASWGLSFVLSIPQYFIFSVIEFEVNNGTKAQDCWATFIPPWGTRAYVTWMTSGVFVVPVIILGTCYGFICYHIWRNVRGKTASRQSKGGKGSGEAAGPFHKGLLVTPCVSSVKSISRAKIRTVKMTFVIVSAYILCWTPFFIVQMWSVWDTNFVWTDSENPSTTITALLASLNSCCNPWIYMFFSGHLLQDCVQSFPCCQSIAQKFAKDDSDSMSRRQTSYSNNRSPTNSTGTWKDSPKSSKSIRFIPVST

Substance: arginine vasopressin (from UniProt P01185 20-28) (peptide)
- EC50 of contractile response, 2°-branch mesenteric artery, control mice: 0.57 nM
- EC50 of contractile response, 2°-branch mesenteric artery, sRA mice: 15.9 nM
- EC50 of contractile response, abdominal aortic rings, control mice: 2.19 nM
- EC50 of contractile response, abdominal aortic rings, sRA mice: 3.72 nM
- Maximum Response (contraction), 2°-branch mesenteric artery, control mice: 52.5%
- Maximum Response (contraction), 2°-branch mesenteric artery, sRA mice: 17.3%
- Maximum Response (contraction), abdominal aortic rings, control mice: 0.29 g
- Maximum Response (contraction), abdominal aortic rings, sRA mice: 0.12 g
